Data reported in patent US20260117244A1, “INHIBITORY RNA FOR THE CONTROL OF PHYTOPATHOGENS” (priority 2021, published 2026).

B1: OEC70 dsRNA: long dsRNA against G. orontii effector candidate 70 (target SEQ ID NO:123) (nucleic acid)
chain: ACAGAGACCGTAACCGTAACTGTCTGTGCACCATCTGCCTCTGCCCATCCCTCTTCGGGATATGCTATGCCATCAGTCTATCCGGCACCAGTTTCATCAGACCCTGCCAGTCCTGCATACCCGCCAAGCGCTTCTGGTGGCTACTCCTCTCCACCACCAAACCAAACTCCAGCACCATTCACCGGCGCCGCTTCAGCAAACGCAGCTCAGGTAGTATCAGCCATTATTGCTGC
modifications: misc_feature 1..233: note = Inhibitory double stranded RNA; listed as RNA
B2: APC1 dsRNA: dsRNA against G. orontii APC1, Anaphase promoting complex/20S cyclosome subunit (target SEQ ID NO:163) (nucleic acid)
chain: AGATTGGTATTATCTCGCCTGAATATGCAACGTTTAGAAGTTCTATTCAGACAAAGCCGACTCTTAATCAACGCAAGGTTTTTACGGTGGCGCCGCCCTTGTGCGCTTCTGACGATGTACAGGAGAATTCTTGTATTATTTGTATCCTTGATCCTAATGAAAAGAAACTTATTACTGTAAATTTAAATATCAAGGCCTCGGAGCAAAAAAGTGAACTCGCAAAATCGGAAAATCTAAAATCTAAGAAAGAGGCAACTACAGTGTCACTT
modifications: misc_feature 1..269: note = Inhibitory double stranded RNA; listed as RNA
B3: OEC60/OEC61 dsRNA: long dsRNA against G. orontii effector candidate 60/61 (target SEQ ID NO:122) (nucleic acid)
chain: CACAAAATGGGCCAAATGGGAAATTGTCGAGCTAATTGTGATTGGAAACGAAGCCCTATTTAATGGCCATACTTCTCCAGATGAGCTCGCAAGATTTATTAGCTCAACCAGAAATACACTACGATCCTCTGGTTACAATGGACCTTGCACAACAGCTGAGCCTCTCAATATCTGGCAGCAAAGCTCGGATGTATTGTGTGGT
modifications: misc_feature 1..202: note = Inhibitory double stranded RNA; listed as RNA
B4: 15 (nucleic acid, listed as Golovinomyces orontii)
chain: CCTTTTGATTACTCCGCCCAACTTTTTTTTTTTAGGTTTTCAGTACTTCACCCTAGGAAGCTCCTCAATCATCATTTCTGAAAAGATGTCATCGTCTCTAGACCAACTTAAATCCACTGGAACTACTATTGTCTGTGATTCAGGTGATTTTGAATCAATTGGCAAATATAAACCTC
modifications: listed as DNA
B5: 32 (nucleic acid, listed as Golovinomyces orontii)
chain: GGTTCATCACCTCTAAATTTGTGAAGAGGTTTCTAAAAGATTCATCTCATCTCATAGCCAGAATTTAGACGCTGTATAAACGATGTTTGGGTCAGGATGTCCGATCAGAATGTATCCAAGAGTCAAGCGTAAATTCTGCAGGCTAGATGTATTTCGTCCCATCATGAATCGTAGATACAAAAGCGGACCTTTTGGCTATACGATGGCACAGGCGCTCGTTTACATGAAGCATGGTGAACCAGACGATGTACTCTCTCTTCATCGTCACTCCATTACACCTACACTTCCACCAGATTCTATTTTCTTACGGACACTTGCAAGCCCAATCAATCCAGCCGATATCAACCAAATTCAAGGTGTCTATCCGTTAAAACCAGAATTCTCGCCTCTACTTGGTACACCGCTTCCGAGCGCTGTAGGTGGGAATGAAGGCTGTTTTGAAGTTGTTTCACTCGGCTCTTCAGTGACTGATGTTAAGAAAGGCGACTGGGTGGTGGCAAATACCCCTGCACTCGGCACCTGGCGTACGCATTTGGTTGTACAGAAGTCTGATATTTTGCCCGTAGAGAAAAAAGGGTTAACCGCAACACAAGTTTGTACTGCATCGATCAATCCGCGAACAGCTTACTGCATGTTGAATAACATTGAGAAACTGCAGAAAGGTGATTGGTGGATTCAAAATGGAGCCAACAGTAGCGTGGGTCGTGCCGCAATTCAATTGGGAAAGTTATGGGGCTTTAAATCAATAAATGTCATTAGAGATCGACCAGACGTGGTATCTACCGAGTCCTTGCGGGCTGAATTGTTAGAATTAGGTGCTACACATGTTGTCACAGAAACAGAGCTGCTTGACAGAGGCTTTCGAGAGCTCGTGACGAAATGGACTAATGATAATAATAAGGGAATTAGATTAGGCTTGAACTGTGTTGGGGGTAAGTCTACAACGGCATTGGTAAAATTACTCGGGAAAAGAGGTCATTTAATCACATATGGTGGCATGTCTCGACAACCTCTACAACTTCCAACCAGCCGCCTCATATTTGATGATCTACGTTTTAGTGGCTTCTGGATTAGTCGCTGGTCCGTCGATAATCCTCGGGAAAGTCAGCACATGCTCAACAAAGTTCTGGACCTCATTCGTACAGGTTCTTTGAAGGAAACTCCTCATCACGAAATACTCTGGAATTGGGATACTAAGATTCAAGTACTCAATGAAGGAATTAAAGGTGCACTTCAGGGTTATCGAAACGCCAAAAATATTCTTGTTTACGGAGATACATAAATTTTGAGT
modifications: listed as DNA
B6: OEC14 dsRNA: long dsRNA against G. orontii effector candidate 14 (target SEQ ID NO:124) (nucleic acid)
chain: CACAACAGCTCTCCTAATCTCTCCCTCCCTAGGAGTTAATTCAGCTCAGAACGGCGAAACTCCCGATGACGATTCATTAGGTTCTACGAAACACATGAACTTTGGCTCTGGTCTCTCTGAATTCAATGCTCATGAAGATATGTATGTTCCTGCCATGGATCTGAATGGGTTTAGAATAAAGCGACGACATTTTCAAAATGAAGGCTATTACTGCAGCAAATCG
modifications: misc_feature 1..223: note = Inhibitory double stranded RNA; listed as RNA
B7: 2 (nucleic acid, listed as Golovinomyces orontii)
chain: ATGTCTAGGCATACATCTGCATTTTTCGTTCTCTTTCCTACATTATTCGTCATATTAGCCAGTGCCTATCAATCACACTATGGCTCATCCTATCATCAGCAAGAGTCTCTTCAATCTGACGCACAATGGAATAGCAATATCTCTGATACTTTATTCCTGGAGCTAGAGGAACTAGCTCGTATCGTTGATATTGCTTACTGTGTTGGTACAACAGGAATCTCTAGCCCTTTTGTATGCGCCTCGCATTGCAGCGATTTTCCAAGCTTTGAACTCGTGGATACATTCCATTCAGGATACTTATTGGGCAATAGTTGCGGTTACATTGCACTTGATCATGCGTCGGACAATAACAGAGGACGAATACTGGTAGTTTTCAGGGGTACATACAGTATCGACGACACTATAATAGACCTGACTATGGTACCACAAAAGTACGCGCCATACCCGTCTCATCACGAAAATAATTTCAAAAGATCAGAATCAAGCCCACTTTTTAATTTAATACCTAGTAAAGAAATTCGGTCCCTCTTACGCTCATTCTCACGTATATTTCATCGTCGAAAAGGAAGTAGGCCAGAAAGACATATGCACTCTAACATTGAATGTACGAACTGCACTGTTCATATGGGATTTTGGACAAGCTACCAACAAATACGTCCTCATTTATTCTCCAAGATTAGTAGCCTTCGAAAAAAATTCCCTAACTATCGATTGGATTTAGTCGGACACTCACTAGGTGGCGCTGTTGCTGCTCTTGCTGGACTTGATCTTAAATTACTTGGATACGAACCTATCGTAACAACCTTTGGTGAGCCACGCGTTGGAAATACTGGATTCAGAGATTTCATGGATGCCACATTTAACCTACGCTCCCAGAACTCAGGGGGTCATTTAGACATGCCAAGCTGCAAAGATCACTATCGTAGAGTGACTCATACAAGTGATCCTATGCCATTACTACCGCCGCAAGATTTTGGCTATCGCCCACATGCTGGCGAGGTATTCATCTCAAAACGAGATCTTCCAGTGGCAATACAAGACGTTCGTCACTGTTTTGGTGACGATGATGTGAACTGTATCGAGGAAAGAGGAAACAATAGAGTTTGGACTGATTTATCTGAGACGTCGAAAATAAGAGCCGGCACCAAAGACTCCTTAGATGCCAGGGGTGGCGAATTGAAAAAACGAGATAGGGTACGATTACATCCTCCCCATCTTTGGCGACCCTTTCTAGCGCATCGTGACTATTTTTGGCGCCTAGGATTATGCGTTCCAGGAGATGATCCAACTGGTCAAGTAAGAGACGAGGTTTAG
modifications: listed as DNA
B8: AATF dsRNA: long dsRNA against G. orontii apoptosis antagonizing transcription factor (target SEQ ID NO:92) (nucleic acid)
chain: TCCGAAGGAGAGTATTCATCAGAAACTCAGGTTTCAGAATACTCGGACGATCAACTCAACTCTGATAATCTTGAAGATGAAGAATCTGATAGTGATGATGATGATGATATTGGAGATGAAAGAACCGAACGATCCGAAATTCAGAAAATCATGAAAGAAGATCAAAAGACCGTGGTATCAACAATATCTCAAGCAGTAAAAGCAGATGTTGAAAAGGGTAAAGCTGTCAAGGCTCAGCGAATGAGATTCGATTGTTTGTTAAATGTACGAATGGCAATGCAAAA
modifications: misc_feature 1..284: note = Inhibitory double stranded RNA; listed as RNA

System: G. orontii MGH1
Experiment: Spray-induced gene silencing (SIGS), G. orontii spore production on A. thaliana (whole plant and detached leaf assays)
Type: in vivo, Golovinomyces orontii
Details: for effect on spore production: long dsRNA; for effect on spore production / average reduction in spore production: vs buffer control
[1] = topical dsRNA against G. orontii target (Gor Seq ID), n>=3

Molecule | effect on spore production (A. thaliana whole plant assay) | G. orontii Spore Production on Arabidopsis, Detached Leaf Assay, % reduction [1] | also measured
B1 | significantly reduced spore production |  | 
B2 |  |  | reduction in spore production (assay format not stated): 48%
B3 | significantly reduced spore production |  | 
B4 |  | 38% | 
B5 |  | 50% | 
B6 | significantly reduced spore production |  | 
B7 |  | 67% | G. orontii Spore Production on Arabidopsis, Whole Plant Assay, % reduction (topical dsRNA against G. orontii target (Gor Seq ID), whole plant assay, n>=3): 41%
B8 |  |  | average reduction in spore production (A. thaliana detached leaf assay): 32%; average reduction in spore production (A. thaliana whole plant assay): 21%
